{"source": "paper PMC2891668", "about": "(Molecular cancer therapeutics, 2009)", "proteins": {"B1": {"name": "NM23-H2 R88A mutant (enzyme, human)", "chain": "ANLERTFIAIKPDGVQRGLVGEIIKRFEQKGFRLVAMKFLRASEEHLKQHYIDLKDRPFFPGLVKYMNSGPVVAMVWEGLNVVKTGAVMLGETNPADSKPGTIRGDFCIQVGRNIIHGSDSVKSAEKEISLWFKPEELVDYKSCAHDWVYE"}}, "target": "the molecule itself", "experiment": "crystal structure"}
{"protein": "B1", "values": [{"measurement": "stoichiometry N", "result": 6}]}
